Assay results as given in a protein production outcome set (Wang et al. 2014).

Assay: label from the status in PepcDB records
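Further: failed if final PepcDB status was selected cloned or expressed and not failed if soluble or beyond.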

Sequence | protein production
MKNVGDLMQRLQKMMPAHIKPAFKTGEELLAWQKEQGAIRSAALERENRAMKMQRTFNRSGIRPLHQNCSFENYRVECEGQMNALSKARQYVEEFDGNIASFIFSGKPGTGKNHLAAAICNELLLRGKSVLIITVADIMSAMKDTFRNSGTSEEQLLNDLSNVDLLVIDEIGVQTESKYEKVIINQIVDRRSSSKRPTGMLTNSNMEEMTKLLGERVMDRMRLGNSLWVIFNWDSYRSRVTGKEY | failed
MKNVKFIKKSESVIGLWLPILVILILFAFLVAESVIMKDIILSNSVVALATAIMASAALVTILVSNRQVQLMARQQRLKAIEDRLEKFYIPLIKAFSSYVYTAQTEDEIETIITCRRYLAGNNLLRVLPMHFKFKADKIAGSANWTFYAKEDFEQWKEALDVLWEEFLEVLKEYYTLSGTEISLPEKPDWLIGYK | failed
MKNVLYTLFAISICLMLGKLANYLLAALPASLYGMIIYALFLQLNWFSPDKITKTNQWFIKHMGVCLVPAGMGIINHFQLIQQHGIALVVIIFSSTFILLTVIGYLSERYLITPDNIKSKAPTGSR | failed
MKPADLTNADRIALELGHAGRNAIPYLDDDRNADRPFTLNTYRPYGYTPDRPVVVVQHGVLRNGADYRDFWIPAADRHKLLIVAPTFSDEIWPGVESYNNGRAFTAAGNPRHVDGWTYALVARVLANIRAAEIADCEQVYLFGHSAGGQFVHRLMSSQPHAPFHAVTAANPGWYTLPTFEHRFPEGLDGVGLTEDHLARLLAYPMTILAGDQDIATDDPNLPSEPAALRQGPHRYARARHYYEAGRRAAAQRGLPFGWQLQVVPGIGHDGQAMSQVCASLWFDGRMPDAAELARLAGSQSA | failed
MKPALHAIDATLPAPPTYTPAGNECALFEHAWKRRVPLLLKGPTGCGKTRFVAHMAARLGLPLFTVSCHDDLTAADLTGRYLLKGGETVWVDGPLTRAVRQGGICYLDEVVEARKDVAVVLHPLADDRRVLPLERTGEELQAPPHFMLVVSYNPGYQSLLKALKPSTRQRFAAIEFGFLAPEQEIAVVAAESGLPSERVAPLVALAGRLRKLKGHDLEEGVSTRLLVYCASLISEGLPVRDAVLAGLIEPLTDDADVKAALIEVAGVVIGLEHHHHHH | not failed
MKPDDLPSDVSSDPLLRLRRQISDEASQCVACGLCVPHCPSYRVTLSEADSPRGRIALMSGVAAGRIPMNARFALHMDRCLTCRACEAVCPNHVRFGELIDDAREMISSPPLEFGGNNPGARVSSFRKWVERELIARPSRIDALRPLLRFYQRSGLQKWVRKSGLLGKTKLALLEAQIPFIDQPRSSSWSVVYPAVGKPRGEVGLFLGCVARVADATTLDAALFVLNQLGYVVHVPTGQTCCGALHQHRGDMDAAAQLERQNVEAFAGLDLGAIITTASGCGAQLSEYSSFSGSQRTTRAPAVSSQAGGETTRRSPPKVLDISEFLAEAEGWEDARFQPLPHKILVHEPCTLRNVLRASTYAYKLLERIPQAQVVPLAGNDQCCGAAGTYFLDQPEISAALLEDKVTALKAGQACYLATSNVGCALHIAAGLRRPGLGIEVIHPVTLIARQMGMQSQSLK | failed
MKPEHRMDTISKLEEGAETPVTGRVMKISSPRTFTTRKGREGKLANVIIADDTGELRAVFWTENIKLLKKFREGDVIRIKDVNIRGGFGGRKEAHLMPRSTVEVLDPLEHHHHHH | not failed
MKPGGTVRALDRLGSAEYPSSHMEVLVAEGTRPSRQRNQAAAAAAGEILYFLDDDSLTSPDFLARAAAHLADPSIAAVGGPSLTPASDSRFQRAIGVVLASRLGGGGARNRYRATGSPRRTSERELILCNLAMRRDVFLAEGGLDERLYPNEENELMDRISKRGMSLVHDPDLAVRRSQRPTFRAFVRQFFGYGRGRGEQTRIAGVRSVVDFLPTVFLIYLLLLPVAPWAPCFLPAALYGAAVMVSALSGAVHSRLYAALPWLVVLYPTLHLCYGAGLLKGLLAPRFRSGGGETAPVTIRCVKEFGTPWHLPAHGPREVPR | failed
MKPKVFITREIPEVGIKMLEDEFEVEVWGDEKEIPREILLKKVKEVDALVTMLSERIDKEVFENAPKLRIVANYAVGYDNIDIEEATKRGIYVTNTPDVLTDATADLAFALLLATARHVVKGDRFVRSGEWKKRGVAWHPKWFLGYDVYGKTIGIIGLGRIGQAIAKRAKGFNMRILYYSRTRKEEVERELNAEFKPLEDLLRESDFVVLAVPLTRETYHLINEERLKLMKKTAILINIARGKVVDTNALVKALKEGWIAGAGLDVFEEEPYYNEELFKLDNVVLTPHIGSASFGAREGMAELVAKNLIAFKRGEIPPTLVNREVIKIRKPGFE | not failed
MKPNEVQIQLERLFRTPIEHPDSSKTAPIAISDLFVQIDPAAGEVQLFNDKDEELHRVVIYDWIQEGRTEIPSAMRQELRAAVKRLHAARFFDKDQFVRPFSVALTQEDFTIIEELLFIDDELIQLDSALLENLDEELNNFLAELLPDIKLEHHHHHH | not failed
MKPNFKNIDIYAGFQPQNGMEWQKENGITADWKTPEHINVKPVYTKEDLEGMEHLNYVAGIPPYLRGPYSMMYTFRPWTIRQYAGFSTAEESNAFYRRNLASGQKGLSVAFDLPTHRGYDPDHERVVGDVGKAGVSICSLENMKVLFDGIPLNKMSVSMTMNGAVLPIMAFYINAGLEQGAKLEEMAGTIQNDILKEFMVRNTYIYPPAFSMKIISDIFEYTSQKMPKFNSISISGYHMQEAGATADIELAYTLADGLEYLRAGVAAGIDIDAFAPRLSFFWAIGMNHFMEIAKMRAARMLWAKIVKQFNPKNPKSLALRTHSQTSGWSLTEQDPFNNVGRTCIEAMAAALGHTQSLHTNALDEAIALPTDFSARIARNTQIYIQEETYVCKNVDPWGGSYYVESLTNELAHKAWEHIQEIESLGGMAKAIETGVPKMRIEEAAARTQARIDSGAQTIVGTNKYRLEKEDPIDILEVDNTAVRLEQIENLKRLKEGRNQAEVDKALAAITECVKTGKGNLLELAVEAAHVRATLGEISDACETIVGRYKAVIRTISGVYSSESKKDTDFARACELTEEFAKKEGRRPRIMIAKMGQDGHDRGAKVVATGYADCGFDVDMGPLFQTPAEAARDAVENDVHVVGVSSLAAGHKTLIPQIIEELKKLGREDILVIAGGVIPAQDYDFLYKAGVVAIFGPGTSVAKAAVQIMDILLDEEE | failed
MKPRDTRVKPGSRVSLADWHTDGDAFVGKDKAASMARLDDDRVRLEELQELLYAEGKHRLLVVLQAMDTAGKDSTIRHVFRGVDPLGVRVANFGVPSTHELRHDYLWRVHPHVPASGEIAIFNRSHYEDVLVPRVNGAIGHAECERRYRQINDFERMLSETGTTIRKFYLHISKDEQKKRLEARRDTPKKRWKFQPGDLAVRAQWDDYRAAYDALLSATSTRHAPWHVVPADDKLARNLIVSALLIEALEGLDMRYPEPVAGVAGTPII | not failed
MKPRKKSVQPIGLKDITIVDDAKMKKAITAAALGNAMEWFDFGVYGFVAYALGKVFFPNADPSVQMIAALATFSVPFLIRPLGGLFFGALGDRFGRQKILAATIVIMSLSTFAIGLIPSYASIGIWAPILLLLAKMAQGFSVGGEYTGASIFVAEYAPDRKRGFLGSWLDFGSIAGFVLGAGVVVLISTVLGEEKFLDWGWRLPFFLALPLGIIGLYLRHALEETPAFQQHVDKLEQGDREGLASGPKVSFKEVATQHWRSLVTCIGVVIATNVTYYMLLTYMPSYLSHNLHYSEDHGVLIIIAIMVGMLFVQPIIGLLSDKFGRRPFIIVGSVGLLALAIPAFMLINSGVLGLIFAGLLIIAVLLNFFIGVMASTLPAMFPTHIRYSALASAFNISVLIAGLTPTLAAWLVETTNDLYMPAYYLMVIAAVGLVTGLTMKETANKPLRGAAPAASDIEEARELLQEHHDNIEQKIEDIDAQIAELEAKREKLALQHPRIE | not failed
MKPTLFLLAAGMGSRYGGLKQLDGLGPNGETIMDYSIYDAINAGFGKLVFVIRKDFEQDFREKIISKYEGHIPCELVFQSIDDLPEGFTCPADRTKPWGTNHAVMMGADVISEPFAVINCDDFYGRDSFQVMGKFLSALPENSKNVYSMVGFRVGNTLSESGTVSRGICSTDANNLLTSVVERTKIQRLDGEVKYIDDNGEWTATPDTTPVSMNFWGFTPDYFAYSEEFFKTFLSDPKNMENLKSEFFIPLMVDKLINDGTATVEVLDTTSKWFGVTYPEDRQSVVDKIQALVDAGEYPAKLFLEHHHHHH | failed
MKPVIQTFLRAAAVAGLALLAGCAGVSTTQSGAIGVDRTQYMSSLVPEQALVQEAGQQYAEIVQEARAKGLLDRDPAQLSRVRAISQRLIAQTGVFRADAANWPWEVHVLSVDEVNAWCMPGGKIAVYTGLLAHIKPTDDELAAVLGHEIAHALREHARERVSQQMATSIGLSVLSMATGSPGASDLGGKLTEVMFTLPNSRTHETEADRMGVELAARAGFDPRAAVTLWQKMGAADGNAPPEFLSTHPSASTRIGELQQALQKVLPLYEQARGQAAKLEHHHHHH | not failed
MKQFLITGGTGMVGSQLVNKLKNRDVHITILTRSDKQSDDPKISYVNWSKDGWMSQVPDIDVVVNLAGATLNKRWTPSYKQLIMTSRIQSTQSLVDLFSQREHKPEVLFNASAMGYYPPSLYHTYTEKYQTHPFDFLSDVVYQWERFAKRFESFGTRVVLGRFSMILSNDGGALQTMKLPYKFFVGGKLGSGFQWYSWIHINDLVRAILFTIDNPNAKGPFNMAAPIAERQNLFGYTLARVMHRPHETWVPSFLMRLALGEMSTVVLDTQKVLPNKLDALGFTFNYSNLKIAFEDLIDALEHHHHHH | failed
MKQILTYLLFIWILLPLKAEEKIYTVDNIPKVHLQNKMQYVCNPAGILSQQACDEIDAMLYALEQQTGIETVVAIVPSIGDKDCFEFSHQLLNQWGVGKKGKDNGLVILLVTDQRCIQFYTGYGLEGILPDAICKRIQMQEMIPYLKKGEWNQGMLAGVKAVCQRLDGSMVNDDEGRGEEGISVSMLLVVILGFITIAGVVGTLAVRASTRCPKCGKHQLQRSSTKLISNRNGVKTEDIIYTCRNCGHTVVRRQQSYDDNYRGRGGGGPFIGGFGGGSFGSGGGGGFSGGSFGGGSGGGGGAGSRFLEHHHHHH | failed
MKQIRLLAQYYVDLMVKLGLVRFSLLLASVLVLLAMVVQMAVTLLLSGEVENIDVVRSIFFGLLITPWAVYFLSVVVEQLEESRQRLSKLVAKLEEMRHRDLELNVQLQENIAQLNQEIADRIKAEEARVLVMSRLKEEMSRREQAQIELEQQSALLRSFLDASPDLVYYRNEEKEFSGCNRAMELLVGKSQKQLIGLTPQDVYAPDIAEKVMETDEKVFRHNVSLTYEQWLVYPDGRKACFELRKVPFYDRMGKRHGLMGFGRDITERKRYQDALENASRDKTTFISTISHELRTPLNGIVGLSRILLDTQLDLEQQKYLKTIHVSAITLGNIFNDVIEMDKQERRKVQLDNQPIDFTGFLVDLENLGGLLAEQKGLKLIMDQHQPLPQKVITDGTRLRQILWNLLSNAVKFTPKGEKGEKGEIVVRVWHEKGDRLRFEVEDSGMGIPADELEKIFAMYYQVKDQHGGKPATGSGIGLAVSKRLAQNMGGDIHVSSSQGKGSCFTLTVIAPSADEAGSGLEDDDDLPLPALHVLLVEDIELNVVVARSVLEKLGNSVDVAMTGQEALDMFDPDEFDLVLLDIQLPDMTGLDVARQLRSRYGKRSLPPLVALTANVLKDKREYLDAGMDDVLSKPLSVPALTAVIKQHWDTHTVWTEESVVEEGDEMAKVKEDLLDIPMLEQYLDLVGPKLIHQSLEMFEQMMPGYLAILDSNMTARDQKGITEEGHKIKGAAGSVGLRHLQQIAQQIQTSSLPAWWDNVQEWIDELKHDWRHDVQVLRDWVAKAEKES | failed
